Legend:
human CD28 [1] = target: T1, human CD28 (human, UniProt P10747 19-220); assay: cell-based or functional assay
T1 construct: whole, on cells; also called CD28 receptor; CD28 CHO cells

L6 antigen [2] = target: T2, L6 antigen (human, UniProt P30408 1-202); assay: flow cytometry on L6 positive H2981 tumor cells
T2 construct: whole, on cells; also called tumor associated antigen L6; L6 molecule
T2 sequence (looked up): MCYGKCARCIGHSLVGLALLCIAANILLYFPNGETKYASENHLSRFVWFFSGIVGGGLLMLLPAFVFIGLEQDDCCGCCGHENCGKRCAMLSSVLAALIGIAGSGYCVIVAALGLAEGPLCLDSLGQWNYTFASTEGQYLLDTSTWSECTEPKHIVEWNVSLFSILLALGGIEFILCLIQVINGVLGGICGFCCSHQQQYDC

human CD28 [3] = target: T1, human CD28; assay: flow cytometry on CD28 CHO cells, FITC anti-human IgG
Experimental: (§1) FIGS. 15a/b/c are line graphs showing that the bispecific 9.3/L6 sFvIg fusion protein binds to L6+ H2981 tumor cells and to CD28+ CHO cells. Panel 15A: L6+ H2981 tumor cells were incubated with L6 sFvIg ( - - - - ) at 0.5 μg/ml or 9.3 sFvIg ( . . . . ) at 0.5 μg/ml or 9.3/L6 sFvIg (_____) fusion protein at 0.5 μg/ml or with medium alone ( . . . . ). Panel 15B: CD28 CHO cells were incubated with 9.3 sFvIg ( - - - - ) at 1 μg/ml or 9.3/L6 sFvIg fusion protein (_____) at 1 μg/ml, or with medium alone ( . . . . ). Bound protein was detected with FITC conjugated goat anti-human IgG at 1:100. Panel 15C: CD28+ PHA blasts were incubated with FITC conjugated L6 α-idiotype mAb 13B ( . . . . ) as negative control, bispecific 9.3/L6 sFvIg at 0.5 μg/ml and bound protein detected with FITC conjugated L6 α-idiotypic mAb 13B ( - - - - ). Preincubation of cells with unlabelled 9.3 sFvIg inhibited binding of bispecific 9.3/L6 sFvIg as shown by a significant reduction in FITC-13B staining (_____). A total of 10,000 cells were analyzed per sample.
(§2) Binding activity of the 9.3 and 9.3/L6 sFvIg Fusion Protein: The binding of each sFvIg fusion protein was assayed by immunostaining and FACS analysis. […] 9.3 sFvIg and 9.3/L6 sFvIg were incubated with CD28 CHO cells and binding was detected using FITC anti-human IgG as shown in FIG. 15B. […]

L6 antigen [4] = target: T2, L6 antigen; assay: flow cytometry on L6 positive H2981 tumor cells, FITC anti-human IgG
Experimental: as §1, §2

9.3 monoclonal antibody gave a 3H-Thymidine incorporation, + blasts; 9.3 mAb (human CD28 [1]) of 58800 and a 3H-Thymidine incorporation, + blasts; 9.3 mAb + 187.1 Ab (human CD28 [1]) of 98300.

Work on “bispecific 9.3/L6 sFvIg fusion protein (bispecific antibody)” yielded a concentration of native L6 antibody that gives the same staining as 1 µg/ml of the fusion protein (L6 antigen [2]) of 0.5 µg/mL, a [3H]-thymidine incorporation of PHA blasts, 9.3/L6 at 0.05 µg/ml, +H3347 (human CD28 [1]) of 97800 cpm and a [3H]-thymidine incorporation of PHA blasts, 9.3/L6 at 0.05 µg/ml, no H3347 cells (human CD28 [1]) of 4000 cpm. The [3H]-thymidine incorporation of PHA blasts, 9.3/L6 at 0.1 µg/ml, +H3347 (human CD28 [1]) was 115000 cpm, the [3H]-thymidine incorporation of PHA blasts, 9.3/L6 at 0.1 µg/ml, no H3347 cells (human CD28 [1]) was 9600 cpm and the [3H]-thymidine incorporation of PHA blasts, 9.3/L6 at 0.5 µg/ml, +H3347 (human CD28 [1]) was 145000 cpm. The [3H]-thymidine incorporation of PHA blasts, 9.3/L6 at 0.5 µg/ml, no H3347 cells (human CD28 [1]) was 69200 cpm, the [3H]-thymidine incorporation of PHA blasts, untransfected H3347 preincubated with 9.3/L6 at 1 µg/ml, cells washed 3× (human CD28 [1]) was 98000 cpm and the proliferation of T cell blasts with 9.3/L6 sFvIg alone (FIG. 16) (human CD28 [1]) was > 0.1 µg/mL.

B1: 9.3 sFvIg (scFv, not shown: small tags and cut ends)
scFv: DIVLTQSPASLAVSLGQRATISCRASESVEYYVTSLMQWYQQKPGQPPKLLIFAASNVESGVPARFSGSGSGTNFSLNIHPVDEDDVAMYFCQQSRKVPYTFGGGTKLEIKRASGGGGSGGGGSGGGGSLAQVQLKESGPGLVTPSQSLSITCTVSGFSLSDYGVHWVRQSPGQGLECLGVIWAGGGTNYNSALMSRKSISKDNSKGQVFLKMKSLQADDTAVYYCARDKGYSYYYSMDYWGQGTSVTVSS
notes: Anti-human CD28 sFv of mouse mAb 9.3 fused to human Ig; from COS or CHO cells; also called 9.3 sFvIg fusion protein; monospecific 9.3 sFvIg
B1: binds (human CD28 [3]); no binding (tested: 1 µg/ml) (L6 antigen [4]).

Reference: patent US6699715 (Bristol-Myers Squibb, dated 2004)
